Literature values, collected in patent US20220370374A1, “TRANSDERMAL ABSORPTION-TYPE PATCH” (KYUSHU UNIVERSITY, NATIONAL UNIVERSITY CORPORATION, priority 2019, published 2022).
Where two headings read alike, the source gives them in different places.

Row | Compound | solubility (in ethanol, acetic acid, or N-methylpyrrolidone) | solubility (in water) | solubility (in ethanol) | solubility (in methanol) | solubility (in water or acetic acid)
1 | C[C@@H](O)[C@@H]1NC(=O)[C@H](CCCCN)NC(=O)[C@@H](Cc2c[nH]c3ccccc23)NC(=O)[C@H](Cc2ccccc2)NC(=O)[C@@H](NC(=O)[C@H](N)Cc2ccccc2)CSSC[C@@H](C(=O)N[C@H](CO)[C@@H](C)O)NC1=O [Octreotide acetate] | freely soluble | Extremely soluble |  |  | 
2 | Leuprorelin |  |  | slightly insoluble | soluble | freely soluble
